Reference: article doi:10.1101/2023.10.19.563203
Read-outs that look alike come from different tables or passages of the source.

What was measured:
fibrin (human) [1] = target: fibrin (human) (UniProt P02679); assay: radioligand binding
fibrin (human) [2] = target: fibrin (human) (UniProt P02679); assay: depletion on clotting, ELISA of plasma against the serum made from it
fibrin (human) [3] = target: fibrin (human) (UniProt P02679); assay: co-sedimentation
fibrin (human) [4] = target: fibrin (human) (UniProt P02679); assay: co-sedimentation; remark: listed apart in the source

| Kd (fibrin (human) [1]) | binding at 75 mM NaCl as percent of that at 20 mM NaCl (fibrin (human) [1]) | percent of input bound (500,000 cpm/well) (fibrin (human) [1]) | percent of input bound at saturation (input 3.5 μg) (fibrin (human) [1]) | percent of the plasma level lost in the serum (healthy volunteer) (fibrin (human) [2]) | percent bound at 96 min, non-denaturing wash (fibrin (human) [3]) | fold increase of percent bound, enhanced against normal clots, at 140 mM NaCl (fibrin (human) [4]) | percent bound after 16 h, after 5 M urea wash (Table 1) (fibrin (human) [4]) | percent bound at 30 min, after 5 M urea wash (fibrin (human) [4]) | percent bound at 30 min, non-denaturing wash (fibrin (human) [4]) | percent bound at 96 min, after 5 M urea wash (fibrin (human) [4]) | percent bound at 96 min, non-denaturing wash (fibrin (human) [4]) | percent bound at 960 min, after 5 M urea wash (fibrin (human) [4]) | percent bound to enhanced plasma clots, 40 min, HEPES-½-saline wash (fibrin (human) [4]) | percent bound to fibrin-only-clots, HEPES-½-saline wash (fibrin (human) [4]) | percent bound to plasma clots at 70 mM salt (fibrin (human) [4]) | Substance |
| --- | --- | --- | --- | --- | --- | --- | --- | --- | --- | --- | --- | --- | --- | --- | --- | --- |
| 0.055 nM | < 50% | 1.7% | 0.1% | 38% | 25% | 6 fold | 30% | 13% | 22% | 18% | 26% | 32.5% | 21.5% | 19% | 21.5% | factor H (from UniProt P08603 19-1231) (natural protein) |
| – | – | – | – | – | – | – | 31% | – | – | – | – | – | – | – | – | plasminogen (natural protein) |
